Here are results for 19 molecules from US20240101645A1 (HENRY M JACKSON FOUNDATION FOR THE ADVANCEMENT OF MILITARY …, published 2024).

B1: COV_2066 (antibody, V domains shown)
VH: QVQLQESGPGLVKPSETLSLTCSVSGFAITNGFDWGWIRQPPRLGLEWIGTVFHTGVTYSNPSLKSRLSTSVDTSKNQFSMTLNSVTAADTGIYYCVRVQSGLEARAMSFFDYWGQGMLVSVSS
VL: DIVMTQSPDSLAVSLGERATINCKSSQNVLYSSNNKNSLAWYQQKPGQPPKVLIYWASTRVSGVPDRFIGSGSGTDFTLTISSLQAEDVAVYYCQQYSSSITFGPGTKVEVKR
B2: COV_3019 (antibody, V domains shown)
VH: EVQLVESGGGLVQPGQSLRLSCTTSGFNFGDNSMSWVRQAPGKGLEWVGFISPKSHGETTEYAASVKGRFSISRDDSTSIAYLQMSSLKTEDTAIYYCIRDSYGHFPEYGFDIWGQGTMVTVSS
VL: DVVLTQTPLFLSVTPGQPASISCKSSRSLIHSDGKTYFYWFLQKAGQPPQLLIYEASNRFSGVPDRFSGSGSGTDFTLHISRVEAEDVGIYYCMHSIQLPRTFGQGTKVELT
B3: COV_3028 (antibody, V domains shown)
VH: EVQLVESGGGLVQPGQSLRLSCTTSGFNFGDNSMSWVRQAPGKGLEWVGFISPKSHGGTTEYAASVKGRFSISRDDSTSNAYLQMTSLKTEDTAIYYCIRDSYGHFPEYGFDIWGQGTMVTVSS
VL: DVVLTQTPLFLSVTPGQPASISCKSSGSLIHTDGKTYFYWFLQKAGQPPQLLIYEASNRFSGVPDRFSGSGSGTDFTLHISRVEAEDVGIYYCMHSIQLPRTFGQGTKVELT
B4: COV_2018 (antibody, V domains shown)
VH: QVQLVQSGAEVKKPGSSVKVSCKASGGTSSSYAISWVRQAPGQGLEWIGGIIPIFDTTKYAQKFQGRVTITADESTNTAYMEVSSLRSEDTAVYYCAKVADRVGASTGELDYWGQGTLVTVSS
VL: EVVLTQSPATLSLSPGERGTLSCRASQSISNYLAWYQQKPGQAPRLLIYNASNRATGVPARFSGSGSGTDFTLTISSLEPEDFAVYYCQQRSNWPPWTFGQGTKVEIK
B5: COV_3005 (antibody, V domains shown)
VH: EVQLLGFGGGFIRPGGSLRLSCAASGFSFSSYSMSWVRQGPGNGLEWVAGISDRGNSKTYADSVKGRFTVSRDNSKDMLYLELTNLRVEDSATYFCARDWSQSSSSSSPDYWGPGILVTVSS
VL: DIQMTQSPSAMSAFVGDRVTITCRASLGVNNYLAWYQQRPGKVPRRLIYAASSLQSGVPSRFRGSGSGTQFTLTITGLQPEDSGTYYCLQHGRYPPVFGPGTRVELI
B6: COV_2108 (antibody, V domains shown)
VH: EVQLVESGGGVVQPGRSLRLSCAASGFTFSNYAFHWVRQAPGKGLEWVAVISYDGSIKYSADSVKGRFTISRDNSKNTLYLQMNSLRAEDTAVYYCARDSGDYVDYFDYWGQGTLVTVSS
VL: DIQMTQSPSSLSASVGDRVTITCRASQSISSYLNWYQQKPGKAPKLLIHTTSSLQSGVPSRFSGSGSGTGFTLTISSLQPEDFATYYCQQSYSSPPLTFGGGTKVEIK
B7: COV_1082 (antibody, V domains shown)
VH: EVQLVESGGGLVQPGGSLRLSCAASGFIFNIHGMNWFRQAPGKGLEWISHIGTSGESRDIHYADSVRGRFTISRDNGKHSLYLQMNSLTAEDTAVYFCARGLTNSDLWGQGTLVTVSS
VL: EIVMTQTPLSSPVTLGQPASISCRSSESLVHSNGDTYLSWLHQRPGQPPRLLLYKISNRFSGVPDRFSGSGAGTDFTLTISRVEAEDVGLYYCMQATSFPRTFGQGTKVEIKR
B8: COV_1037 (antibody, V domains shown)
VH: QVQLVESGGGVVQPGRSLRLSCAASGFTFSSYGMHWVRQAPGKGLEWVAVIWYDGSNKYYADSVKGRFTISRDNSKNTLYLQMNSLRAEDTAVYYCARGGYQLLWHYYYYYGMDVWGQGTTVTVSS
VL: not shown
B9: COV_1076 (antibody, V domains shown)
VH: QVQLVESGGGLVKPGGSLRLSCAASGFTFSEYSMSWIRQAPGKGLEWVSFIGGSGDYTNYADSVKGRFTISRDNAKNLLYLQMNTLRVEDTAVYYCARRGSANCGDDWWGQGTLVTVSS
VL: DIVMTQSPDSLAVSLGERATINCKSSHGVLYRSNNKDHLAWYQQKPGHPPKLLIYWASIRESGVPDRFSGSGSGTDFTLTISGLQAEDVAVYYCQQYYGNPTFGGGTKVEIKR
B10: COV_1046 (antibody, V domains shown)
VH: QVQLVQSGAEVQKPGASVKVSCKASGDTFSYSYVHWVRQAPGHGLEWMGIINPSNGDTNYTQNFQGRVTMTSDTSTSTVLLELSSLTSDDTAVYYCARAPDQYFDYWGQGSPVTVSA
VL: DIVMTQTPLSSPVTLGQPASISCRSSESLVHSDGNTYLSWLQQRPGQPPRLLIYRVSNRFSGVPDRFSGSGAGTDFTLKISRVEAEDVGVYYCMQAKDFPRTFGQGTKVEIK
B11: COV_1198 (antibody, V domains shown)
VH: EVQLVEAGGDLVQPGGSLRLSCSASGFTFTSYSIHWVRQAPGKGLEYVSTISHGGDITDFADSVKGRFTISRDNSENTVYLQMSSLRPEDTAVYYCARSNFWLDYWGQGTLVTVSS
VL: KIVMTQSPATLSVSPGDSATLSCRASQSVSSNLAWYQQKPGQAPRLLISGAFTRATGIPARFSGSGSGTEFTLTISSLQSEDFAVYYCLQYNNWPLYTFGQGTKLEIKR
B12: COV_2172 (SEQ ID NO:442/447) (antibody, V domains shown)
VH: EVQLVESGGGVVQPGRSLRLSCAPSGFTFSTYAMHWVRQAPGKGLEWVAVISYDGSIKYYADSVKGRFTISRDNTMNTVFLQMNSLRAEDTAVYFCAKGGERWELFTSFDYWGQGTQVTVSS
VL: QSALTQPRSVSGSPGQSVTISCTGTSSDVGGYNYVSWYQQHPGKAPKLMIYDVSKRPSGVPDRFSGSKSGNTASLTISGLQAEDEADYYCCSYAGSYTFVFGGGTKLTVL
B13: COV_1071 (antibody, V domains shown)
VH: QVHLVQSGAEVQKPGASVKISCKASGDTFSESYVHWVRQAPGSGLEWMGIINTRDGDTNYTHQFQDRVMMTTDTSTSTVFLELYSLTSEDTAVYYCARAPDQYFDYWGQGSPVTVSA
VL: DIVMTQTPLSSPVTLGQPASISCRSSESLVHSNGNTYLSWLQQRPGQPPKLLIYRVSNRFSGVPDRFSGSGAGTEFTLKISRVEAEDVGVYYCMQARHFPRTFGQGTKVEIKR
B14: COV_1045 (antibody, V domains shown)
VH: QVHLVQSGAEVQKPGASVKISCKASGDTLSDSYVHWVRQAPGSGLEWMGIINTRDGDTNYTHQFQDRVMMTTDTSTSTVFLELFSLTSEDTAVYYCARAPDQYFDYWGQGSPVTVSA
VL: DIVMTQTPLSSPVTLGQPASISCRSSESLVHSNGNTYLSWLQQRPGQPPRLLIYRVSNRFSGVPDRFSGSGAGTEFTLKISRVEAEDVGVYYCMQARHFPRTFGQGTKVEIK
B15: COV_1087 (antibody, V domains shown)
VH: QVQLVQSGAEVQKPGASVKVSCKASGDTFSYHYVHWVRQAPGYGLEWMGIIDPRNADTNYTQKFQGRVTMTTDTSTNTVFLELSSLTSDDTAVYYCARAPDQYFDYWGQGSPVTVSA
VL: DIVMTQTPLSSPVTLGQPASISCKSSESLLHSDGNTYLSWLQQRPGQPPRLLIYRVSNRFSGVPDRFSGSGAGTDFTLRISRVEAEDVGVYYCMQATQFPRTFGQGTKVEIKR
B16: COV_1086 (antibody, V domains shown)
VH: GAQLLESGGALVQPGGSLRLSCAASGFTFNNYGMGWVRQTPGKGLEWVSTINDNGGNTHYADSVKGRFTISRDNSKHTLYLQMNSLRVEDTALYYCAKDVGGPALFEYWGHGTLVTVSS
VL: DIVMTQTPLSSSVTLGQPASISCRSSQSLVHSDGNTYLTWLQQRPGQPPKLLIYKISNRLSGVPDRFSGSGAGTDFTLKISRVEAEDVGVYYCMQATHFPRTFGQGTKLEIKR
B17: COV_3000 (antibody, V domains shown)
VH: EVQLVESGGGLVQPGRSLRLSCTASGFNFGDNSMSWVRQAPGKGLEWVGFISNRASGGTTEYAASVKGRFTISRDDSKSIAYLQMNSLKTEDTAMYFCTKDSYGHFPNYGFDIWGQGTMVTVSS
VL: AVVMTQTPLSLSVTPGQPASISCKSSQSLIHTDGKTYHYWFLQRPGQPPQLLIYDVSNRVSGVPDRFSGSGSGTDFTLKISRVEADDVGVYYCMHSIQLPRAFGQGTKVEIT
B18: COV_3013 (antibody, V domains shown)
VH: EVQLVESGGGLVQPGRSLRLSCTTSGFNFGDNSMSWVRQAPGKGLEWVGFISNKAHGATTEYAASVRGRFTISRDDSKSIVYLQMNSLTTEDTAMYYCIRDSYGHFPSYGFDIWGQGTMVTVSS
VL: DVVMTQTPLSLSVTPGQPASISCKSSQSLIHSDAKTYFYWFLQKPGQPPQLLIYDVSNRFSGVPDRFSGSGSGTDFTLKISRVEAEDVGVYYCMHSIQLPRTFGQGTKVEIT
B19: COV_3037 (antibody, V domains shown)
VH: EVQLVESGGGLVQPGRSLRLSCTASGFNFGDNSMSWVRQAPGKGLEWVGFISNRAYGGTTEYAASVKGRFSISRDDSKSIAYLQMNSLRTEDTAMYFCTKDSYGHFPNYGFDIWGQGTMVIVSS
VL: VVVMTQTPLSLSVTPGQPASISCKSSQSLIHTDGKTYHYWFLQRPGQPPQLLIYDVSNRVSGVPDRFSGSGSGTDFTLKISRVEADDVGVYYCMHSIQLPRAFGQGTKVEIT

In the assay the target is SARS-CoV-2 S on pseudovirions (Wuhan Hu-1 / IL1/2020, last 18 amino acids removed) (SARS-CoV-2, UniProt P0DTC2 14-1273). As to the kind of experiment: cell-based or functional assay.
On to B1, for which the “Mean IC50, pSV neutralization” value is not below 25 µg/ml and the “Mean IC80, pSV neutralization” value was not below 25 µg/ml.
As for B2, the “Mean IC50, pSV neutralization” value is not below 25 µg/ml and the “Mean IC80, pSV neutralization” value was not below 25 µg/ml.
Consider B3, for which the “Mean IC50, pSV neutralization” value was not below 25 µg/ml and the “Mean IC80, pSV neutralization” value was not below 25 µg/ml.
As for B4, the “Mean IC50, pSV neutralization” value came out at 0.31 µg/ml and the “Mean IC80, pSV neutralization” value was 1.27 µg/ml.
Consider B5, for which the “Mean IC50, pSV neutralization” value is not below 25 µg/ml and the “Mean IC80, pSV neutralization” value was not below 25 µg/ml.
In the case of B6, the “Mean IC50, pSV neutralization” value worked out at 13.5 µg/ml and the “Mean IC80, pSV neutralization” value was found to be 15.8 µg/ml.
B7: the “Mean IC50, pSV neutralization” value was not below 25 µg/ml and the “Mean IC80, pSV neutralization” value is not below 25 µg/ml.
For B8, the “Mean IC50, pSV neutralization” value was not below 25 µg/ml and the “Mean IC80, pSV neutralization” value is not below 25 µg/ml.
As for B9, the “Mean IC50, pSV neutralization” value is not below 25 µg/ml and the “Mean IC80, pSV neutralization” value is not below 25 µg/ml.
As for B10, the “Mean IC50, pSV neutralization” value is not below 25 µg/ml and the “Mean IC80, pSV neutralization” value was not below 25 µg/ml.
As for B11, the “Mean IC50, pSV neutralization” value is not below 25 µg/ml and the “Mean IC80, pSV neutralization” value is not below 25 µg/ml.
On to B12, for which the “Mean IC50, pSV neutralization” value is 3.73 µg/ml and the “Mean IC80, pSV neutralization” value is not below 25 µg/ml.
For B13, the “Mean IC50, pSV neutralization” value was not below 25 µg/ml and the “Mean IC80, pSV neutralization” value was not below 25 µg/ml.
In the case of B14, the “Mean IC50, pSV neutralization” value is not below 25 µg/ml and the “Mean IC80, pSV neutralization” value is not below 25 µg/ml.
For the molecule B15, the “Mean IC50, pSV neutralization” value was not below 25 µg/ml and the “Mean IC80, pSV neutralization” value was not below 25 µg/ml.
Take B16: the “Mean IC50, pSV neutralization” value is not below 25 µg/ml and the “Mean IC80, pSV neutralization” value is not below 25 µg/ml.
Take B17: the “Mean IC50, pSV neutralization” value is not below 25 µg/ml and the “Mean IC80, pSV neutralization” value is not below 25 µg/ml.
B18: the “Mean IC50, pSV neutralization” value is not below 25 µg/ml and the “Mean IC80, pSV neutralization” value was not below 25 µg/ml.
As for B19, the “Mean IC50, pSV neutralization” value was not below 25 µg/ml and the “Mean IC80, pSV neutralization” value is not below 25 µg/ml.
